Measured values from PMC5175368.

Molecular target: PA63 (cleaved protective antigen) (Bacillus anthracis) (UniProt P13423)
Test: filter binding
Conditions: N15 and N23 = AEGIS dP

Chain of PA63 (cleaved protective antigen) (Bacillus anthracis) (P13423 197-764): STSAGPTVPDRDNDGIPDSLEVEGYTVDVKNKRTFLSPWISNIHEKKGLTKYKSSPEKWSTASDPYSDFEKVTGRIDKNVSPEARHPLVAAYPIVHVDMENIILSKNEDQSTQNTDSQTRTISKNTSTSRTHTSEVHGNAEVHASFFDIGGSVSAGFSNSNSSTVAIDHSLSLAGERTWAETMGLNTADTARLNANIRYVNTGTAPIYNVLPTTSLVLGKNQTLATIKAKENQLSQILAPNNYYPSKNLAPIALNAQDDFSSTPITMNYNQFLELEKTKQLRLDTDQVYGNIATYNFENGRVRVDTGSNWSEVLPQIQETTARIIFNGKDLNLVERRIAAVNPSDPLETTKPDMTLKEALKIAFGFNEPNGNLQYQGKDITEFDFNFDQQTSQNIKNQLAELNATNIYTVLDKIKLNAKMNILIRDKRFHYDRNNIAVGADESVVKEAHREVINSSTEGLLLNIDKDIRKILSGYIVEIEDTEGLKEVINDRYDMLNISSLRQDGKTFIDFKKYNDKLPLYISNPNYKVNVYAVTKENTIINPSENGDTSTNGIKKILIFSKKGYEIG

Work on “CGTGTAAACCATGGNGTGAGTGNGTAGGTGTCCTGAGGAGGT [PA1T4A6A7]” yielded a Kd of 2.29 µM.
